Measured values: paper PMC9882231 (bioRxiv, 2023)
Values joined by “and” are separate entries in the source; they are usually repeats but may differ in a detail not shown here. Identical values can stand only once.

B1: Ndl1^CC (Ndl1 coiled-coil domain, residues 2-132) (domain or fragment)
chain: VPNLDLETAIQIISSLETQLSELEGATKEYENDLEQVISKLKSDLLESQQQNKCNKKQITDLEIQVDELENENIQLRNKIETLQLESDRRLERNVLLEHELLDTKEALQKLRVSKEEATSGETRRNTRSLP
B2: Ndel1^CC (human Ndel1 coiled-coil domain, residues 1-195), as used in Figure 4 (domain or fragment)
chain: MDGEDIPDFSSLKEETAYWKELSLKYKQSFQEARDELVEFQEGSRELEAELEAQLVQAEQRNRDLQADNQRLKYEVEALKEKLEHQYAQSYKQVSVLEDDLSQTRAIKEQLHKYVRELEQANDDLERAKRATIVSLEDFEQRLNQAIERNAFLESELDEKESLLVSVQRLKDEARDLRQELAVRERQQEVTRKSA

How the values were obtained:
[1] = biological target: yeast dynein complex, wild-type (WT) (S. cerevisiae, UniProt P36022;P40960;Q04949;Q02647, HaloTag or SNAP ligand dye on the tag); assay: TIRF microscopy microtubule recruitment assay
mass photometry = biological target: the molecule itself; assay: mass photometry
[2] = biological target: B1; assay: mass photometry
[3] = biological target: yeast dynein^ΔICN complex (S. cerevisiae, UniProt P36022;P40960;Q04949;Q02647, HaloTag or SNAP ligand dye on the tag); assay: TIRF microscopy microtubule recruitment assay
[4] = biological target: B2; assay: mass photometry

Chain of yeast dynein complex, wild-type (WT) (P36022 whole entry, chain 1 of 4): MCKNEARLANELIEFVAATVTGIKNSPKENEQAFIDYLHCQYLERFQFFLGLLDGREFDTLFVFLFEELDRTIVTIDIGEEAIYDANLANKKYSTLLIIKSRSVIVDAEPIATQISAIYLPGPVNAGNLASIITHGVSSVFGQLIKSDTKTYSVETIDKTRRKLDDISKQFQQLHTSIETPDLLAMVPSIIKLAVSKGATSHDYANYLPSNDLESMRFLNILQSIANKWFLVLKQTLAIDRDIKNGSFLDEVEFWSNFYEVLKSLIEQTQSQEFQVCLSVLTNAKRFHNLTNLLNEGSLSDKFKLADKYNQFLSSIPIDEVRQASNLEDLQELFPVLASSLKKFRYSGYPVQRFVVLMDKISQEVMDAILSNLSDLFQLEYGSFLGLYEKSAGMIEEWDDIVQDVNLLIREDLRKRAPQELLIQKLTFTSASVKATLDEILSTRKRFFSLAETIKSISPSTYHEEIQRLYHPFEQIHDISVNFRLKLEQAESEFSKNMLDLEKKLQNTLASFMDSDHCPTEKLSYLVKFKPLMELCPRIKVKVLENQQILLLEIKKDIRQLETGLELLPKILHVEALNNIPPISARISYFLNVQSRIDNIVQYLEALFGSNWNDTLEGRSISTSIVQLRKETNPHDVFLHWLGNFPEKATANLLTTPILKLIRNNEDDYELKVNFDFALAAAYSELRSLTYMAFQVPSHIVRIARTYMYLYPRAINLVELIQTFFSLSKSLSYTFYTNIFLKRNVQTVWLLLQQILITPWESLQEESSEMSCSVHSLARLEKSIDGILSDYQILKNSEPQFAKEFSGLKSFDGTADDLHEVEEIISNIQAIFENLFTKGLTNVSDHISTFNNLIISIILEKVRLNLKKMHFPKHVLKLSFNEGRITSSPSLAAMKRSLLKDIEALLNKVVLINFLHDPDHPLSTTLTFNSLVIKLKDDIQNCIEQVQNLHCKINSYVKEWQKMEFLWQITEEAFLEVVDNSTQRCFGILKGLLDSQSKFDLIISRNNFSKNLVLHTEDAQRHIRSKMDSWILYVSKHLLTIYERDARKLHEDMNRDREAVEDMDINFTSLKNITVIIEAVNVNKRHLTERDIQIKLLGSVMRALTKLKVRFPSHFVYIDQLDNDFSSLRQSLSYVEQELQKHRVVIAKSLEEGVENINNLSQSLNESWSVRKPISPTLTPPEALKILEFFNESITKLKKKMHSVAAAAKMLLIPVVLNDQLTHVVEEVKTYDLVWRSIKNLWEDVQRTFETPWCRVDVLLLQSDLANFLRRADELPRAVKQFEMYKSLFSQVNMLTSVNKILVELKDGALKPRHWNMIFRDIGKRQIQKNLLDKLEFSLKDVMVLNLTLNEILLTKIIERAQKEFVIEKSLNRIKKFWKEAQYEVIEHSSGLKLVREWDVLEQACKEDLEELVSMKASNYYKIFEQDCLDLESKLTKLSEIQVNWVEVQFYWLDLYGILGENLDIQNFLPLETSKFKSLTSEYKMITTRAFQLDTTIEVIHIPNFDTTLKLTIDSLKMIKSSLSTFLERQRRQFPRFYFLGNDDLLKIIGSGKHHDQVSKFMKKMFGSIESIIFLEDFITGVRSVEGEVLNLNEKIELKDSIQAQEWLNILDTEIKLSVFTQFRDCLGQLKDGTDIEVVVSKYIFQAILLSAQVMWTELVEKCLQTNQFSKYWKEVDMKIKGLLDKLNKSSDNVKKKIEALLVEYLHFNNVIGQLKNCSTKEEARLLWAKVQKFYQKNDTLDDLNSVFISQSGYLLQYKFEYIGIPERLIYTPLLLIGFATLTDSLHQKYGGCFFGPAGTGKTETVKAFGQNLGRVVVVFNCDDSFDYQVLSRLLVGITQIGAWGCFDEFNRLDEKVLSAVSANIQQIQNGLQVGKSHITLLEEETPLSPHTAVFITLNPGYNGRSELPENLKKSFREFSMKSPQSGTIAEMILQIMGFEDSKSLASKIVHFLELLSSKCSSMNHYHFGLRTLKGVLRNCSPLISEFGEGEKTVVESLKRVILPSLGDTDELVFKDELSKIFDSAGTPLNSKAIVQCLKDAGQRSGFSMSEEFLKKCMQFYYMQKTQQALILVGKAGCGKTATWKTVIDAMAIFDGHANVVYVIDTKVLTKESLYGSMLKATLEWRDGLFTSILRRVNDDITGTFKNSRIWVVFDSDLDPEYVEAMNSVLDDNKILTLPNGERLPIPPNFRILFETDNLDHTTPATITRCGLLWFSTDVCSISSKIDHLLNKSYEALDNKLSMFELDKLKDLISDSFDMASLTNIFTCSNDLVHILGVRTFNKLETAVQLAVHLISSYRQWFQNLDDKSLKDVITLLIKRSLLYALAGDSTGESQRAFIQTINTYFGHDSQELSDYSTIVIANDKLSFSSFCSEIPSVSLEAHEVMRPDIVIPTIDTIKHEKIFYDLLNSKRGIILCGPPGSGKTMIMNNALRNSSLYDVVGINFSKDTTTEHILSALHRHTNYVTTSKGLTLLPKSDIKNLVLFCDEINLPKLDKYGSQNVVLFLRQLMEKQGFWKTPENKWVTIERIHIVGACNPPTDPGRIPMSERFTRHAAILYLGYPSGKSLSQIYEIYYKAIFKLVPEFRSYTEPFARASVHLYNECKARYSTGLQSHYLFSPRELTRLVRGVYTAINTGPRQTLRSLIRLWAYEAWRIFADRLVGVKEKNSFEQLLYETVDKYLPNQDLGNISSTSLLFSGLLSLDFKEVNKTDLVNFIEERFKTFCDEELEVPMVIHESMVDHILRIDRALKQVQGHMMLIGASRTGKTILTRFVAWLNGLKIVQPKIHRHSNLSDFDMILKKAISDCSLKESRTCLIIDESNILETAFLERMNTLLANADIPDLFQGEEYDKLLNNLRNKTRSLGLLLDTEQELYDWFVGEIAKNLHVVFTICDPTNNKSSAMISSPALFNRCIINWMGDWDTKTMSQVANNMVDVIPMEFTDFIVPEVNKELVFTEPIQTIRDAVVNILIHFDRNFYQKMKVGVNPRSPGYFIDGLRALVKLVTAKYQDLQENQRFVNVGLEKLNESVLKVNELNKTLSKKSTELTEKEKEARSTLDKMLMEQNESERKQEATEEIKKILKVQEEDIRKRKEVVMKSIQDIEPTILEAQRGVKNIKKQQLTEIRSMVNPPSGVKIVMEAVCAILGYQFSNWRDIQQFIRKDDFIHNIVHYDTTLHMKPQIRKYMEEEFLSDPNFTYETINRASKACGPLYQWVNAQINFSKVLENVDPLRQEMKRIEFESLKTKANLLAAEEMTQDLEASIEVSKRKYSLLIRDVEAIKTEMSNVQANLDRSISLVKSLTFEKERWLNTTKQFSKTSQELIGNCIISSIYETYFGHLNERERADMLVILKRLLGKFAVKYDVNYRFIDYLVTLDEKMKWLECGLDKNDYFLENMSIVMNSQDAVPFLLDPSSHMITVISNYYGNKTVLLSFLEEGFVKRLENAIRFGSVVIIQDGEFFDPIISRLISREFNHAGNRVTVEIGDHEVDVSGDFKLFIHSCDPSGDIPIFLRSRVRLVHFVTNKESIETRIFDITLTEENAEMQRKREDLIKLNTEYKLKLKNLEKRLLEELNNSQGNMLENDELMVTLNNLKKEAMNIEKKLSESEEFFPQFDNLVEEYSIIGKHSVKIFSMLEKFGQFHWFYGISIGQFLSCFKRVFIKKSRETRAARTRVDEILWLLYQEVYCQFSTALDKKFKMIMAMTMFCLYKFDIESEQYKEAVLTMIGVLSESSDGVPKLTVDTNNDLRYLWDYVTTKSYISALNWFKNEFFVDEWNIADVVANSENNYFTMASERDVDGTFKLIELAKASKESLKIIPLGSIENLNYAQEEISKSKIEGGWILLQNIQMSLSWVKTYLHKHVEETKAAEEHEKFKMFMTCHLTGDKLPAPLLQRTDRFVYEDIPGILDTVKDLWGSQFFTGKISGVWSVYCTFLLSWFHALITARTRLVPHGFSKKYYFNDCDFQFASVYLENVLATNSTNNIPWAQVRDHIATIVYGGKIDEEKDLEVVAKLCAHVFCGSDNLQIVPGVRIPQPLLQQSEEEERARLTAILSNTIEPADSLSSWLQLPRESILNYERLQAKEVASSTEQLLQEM
Chain of yeast dynein complex, wild-type (WT) (P40960 whole entry, chain 2 of 4): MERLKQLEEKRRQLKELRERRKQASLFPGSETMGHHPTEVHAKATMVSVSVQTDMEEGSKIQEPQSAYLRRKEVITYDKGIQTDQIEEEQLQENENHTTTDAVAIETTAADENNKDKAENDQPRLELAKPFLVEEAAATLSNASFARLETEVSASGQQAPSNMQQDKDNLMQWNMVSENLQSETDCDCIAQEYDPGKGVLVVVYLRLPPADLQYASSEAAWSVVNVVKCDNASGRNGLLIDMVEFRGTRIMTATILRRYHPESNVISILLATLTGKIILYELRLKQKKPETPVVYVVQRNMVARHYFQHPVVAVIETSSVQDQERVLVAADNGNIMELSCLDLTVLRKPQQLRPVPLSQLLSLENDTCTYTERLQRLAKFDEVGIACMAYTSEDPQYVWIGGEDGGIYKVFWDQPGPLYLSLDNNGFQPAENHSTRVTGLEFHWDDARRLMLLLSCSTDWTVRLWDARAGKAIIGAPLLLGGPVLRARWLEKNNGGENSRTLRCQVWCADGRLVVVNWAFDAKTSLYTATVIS
Chain of yeast dynein complex, wild-type (WT) (Q04949 whole entry, chain 3 of 4): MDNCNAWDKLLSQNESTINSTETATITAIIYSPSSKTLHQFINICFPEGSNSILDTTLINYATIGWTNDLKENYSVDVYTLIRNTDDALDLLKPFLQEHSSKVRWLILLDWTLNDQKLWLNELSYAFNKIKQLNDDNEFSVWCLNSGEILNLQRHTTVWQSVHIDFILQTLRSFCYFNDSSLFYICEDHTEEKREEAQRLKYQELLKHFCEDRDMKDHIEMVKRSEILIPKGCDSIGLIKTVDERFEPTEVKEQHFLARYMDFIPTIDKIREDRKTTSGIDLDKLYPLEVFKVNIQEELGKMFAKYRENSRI
Chain of yeast dynein complex, wild-type (WT) (Q02647 whole entry, chain 4 of 4): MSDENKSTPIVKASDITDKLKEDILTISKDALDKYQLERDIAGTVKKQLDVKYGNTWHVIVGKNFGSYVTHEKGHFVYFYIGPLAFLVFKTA

Binder | binding result [1] | stoichiometry N (mass photometry) | further results
Ndl1, full-length, with C-terminal FLAG-SNAPf (natural protein, JFX554 or JFX650 SNAP-tag ligand on the SNAPf tag) MVPNLDLETAIQIISSLETQLSELEGATKEYENDLEQVISKLKSDLLESQQQNKCNKKQITDLEIQVDELENENIQLRNKIETLQLESDRRLERNVLLEHELLDTKEALQKLRVSKEEATSGETRRNTRSLPSQNKKMKLFKDTIKVSTTSSTLYLQNMAKTNNAARSHCNIPNTQITQSTVIATTSSV | binds |  | 
Nip100^CC1 (Nip100 coiled-coil, residues 97-377) with eGFP (domain or fragment) EHSLLNGNAAQETIKNLQVKCESLASKLNKIKIENHELKTSVEKLSTNETVLLSKISRLDKLVKELKVENGNMKTHLDNFNHLLDASDSVMAPDLDKGTLLERSHLLQGLLDQTKLSYDKAMKVQEDLLEENTQLLEENAVLSKKISDLGLQLQQTNNTIGDLALQIEAQSKSSNIVDKLTNDNILLTSNIKALNNELEELQAKEKLDENLRITYEQLEQELRLQLSNLQSALENEKEIAGTYIEENSRLKATLESIEAKTSHKFQSLELKVNTLQEELYQ | binds |  | 
Pac1, full-length, with C-terminal FLAG-SNAPf (natural protein, SNAP-tag ligand dye on the SNAPf tag where labelled) MTNWQQQLPLTDTQKNELDKSVLRYLNWNYKQTVRHEHAQDYESVRHAIVTLSGFLLQESVDRQEFISNNDTSNESMVDIDELLLPKKWNSIVRLQKKIIELEQNTETLVSQIKDLNTQVSELAQFKPTTSNGTSAHNVLKWIPRNLPSCLINVESSVTSVKLHPNLPIVFVATDHGKLYAFDLFNYTIPLASLQSHTKAITSMDVLFTNYTNSSKKNYLVIVTASKDLQIHVFKWVSEECKFQQIRSLLGHEHIVSAVKIWQKNNDVHIASCSRDQTVKIWDFHNGWSLKTFQPHSQWVRSIDVLGDYIISGSHDTTLRLTHWPSGNGLSVGTGHEFPIEKVKFIHFIEDSPEIRFRTPSTDRYKNWGMQYCVSASRDRTIKIWEIPLPTLMAHRAPIPNPTDSNFRCVLTLKGHLSWVRDISIRGQYLFSCADDKSVRCWDLNTGQCLHVWEKLHTGFVNCLDLDVDFDSNVTPRQMMVTGGLDCKSNVFMR | binds | 2 | stoichiometry N [2]: 1 and 2 Pac1:Ndl1; binding result [3]: binds
LIS1, wild-type (natural protein) MVLSQRQRDELNRAIADYLRSNGYEEAYSVFKKEAELDVNEELDKKYAGLLEKKWTSVIRLQKKVMELESKLNEAKEEFTSGGPLGQKRDPKEWIPRPPEKYALSGHRSPVTRVIFHPVFSVMVSASEDATIKVWDYETGDFERTLKGHTDSVQDISFDHSGKLLASCSADMTIKLWDFQGFECIRTMHGHDHNVSSVAIMPNGDHIVSASRDKTIKMWEVQTGYCVKTFTGHREWVRMVRPNQDGTLIASCSNDQTVRVWVVATKECKAELREHEHVVECISWAPESSYSSISEATGSETKKSGKPGPFLLSGSRDKTIKMWDVSTGMCLMTLVGHDNWVRGVLFHSGGKFILSCADDKTLRVWDYKNKRCMKTLNAHEHFVTSLDFHKTAPYVVTGSVDQTVKVWECR |  |  | stoichiometry N [4]: 1
B1 | binds | 2 | 
B2 |  | 2 | 
